Target: T1, fluorogenic peptide (MCA)Lys-Lys-Pro-Ala-Glu-Phe-Phe-Ala-Leu-Lys(DNP)
T1 chain: KKPAEFFALK

B1: proCardosinB lacking the PSI region (pCBΔPSI) (protein)
chain: MVSNGGLLRVGLKKRKVDRLDQLRAHGVHMLGNARKDFGFRRTLRDSGSGIVALTNDRDTAYYGEIGIGTPPQNFAVIFDTGSSDLWVPSTKCDTSLACVIHPRYDSGDSSTYKGNGTTASIQYGTGAIVGFYSQDSVEVGDLVVEHQDFIETTEEDDTVFLKSEFDGILGLGFQEISAGKAVPVWYNMVNQGLVEEAVFSFWLNRNVDEEEGGELVFGGVDPNHFRGNHTYVPVTRKGYWQFEMGDVLIGDKSSGFCAGGCAAIADSGTSFFAGPTAIITQINQAIGAKGGGGSAESIVDCNGISSMPNIAFTIGSKLFEVTPEQYIYKVGEGEAATCISGFTALDIMSPQGPIWILGDMFMGPYHTVFDYGKLRVGFAEAV
Which Km does the source give for B1 here?
Its Km is 8.7 µM.

And the VMax?
Its VMax is 2.15e-05 µmol/s.

What about the kcat of the same protein?
Its kcat is 36.5 s⁻¹.

What about the kcat/Km of the same protein?
Its kcat/Km is 4.2e+06 M⁻¹ s⁻¹.
